The text below walks through data of publication PMC10640585, “The E3 ligase Riplet promotes RIG-I signaling independent of RIG-I oligomerization” (Nature Communications, 2023).

Broadly, the koff is the rate constant with which the complex falls apart. By kon is commonly meant the rate constant with which the complex forms. The Kd is the constant that tells how readily two partners part at equilibrium. Lower therefore signals tighter binding.

Data set [1] concerns the target T1, biotinylated Avi-tagged RIG-I (Retinoic acid inducible gene-I) (human, UniProt O95786 1-925, biotin on the Avi tag (by BirA)).
T1 construct: RIG-I, human, full-length protein; Used alone (apo), pre-incubated with the RNA p3SLR14 (one RIG-I per RNA) or with p3dsRNA24 (two RIG-I per RNA); also called Avi-RIG-I; Apo-RIG-I; source: E. coli Rosetta 2(DE3), purified (Ni-NTA, heparin, SEC), biotinylated by BirA, SEC; not shown: His6, N-terminal, cleaved; SUMO, N-terminal, cleaved
T1 sequence (looked up): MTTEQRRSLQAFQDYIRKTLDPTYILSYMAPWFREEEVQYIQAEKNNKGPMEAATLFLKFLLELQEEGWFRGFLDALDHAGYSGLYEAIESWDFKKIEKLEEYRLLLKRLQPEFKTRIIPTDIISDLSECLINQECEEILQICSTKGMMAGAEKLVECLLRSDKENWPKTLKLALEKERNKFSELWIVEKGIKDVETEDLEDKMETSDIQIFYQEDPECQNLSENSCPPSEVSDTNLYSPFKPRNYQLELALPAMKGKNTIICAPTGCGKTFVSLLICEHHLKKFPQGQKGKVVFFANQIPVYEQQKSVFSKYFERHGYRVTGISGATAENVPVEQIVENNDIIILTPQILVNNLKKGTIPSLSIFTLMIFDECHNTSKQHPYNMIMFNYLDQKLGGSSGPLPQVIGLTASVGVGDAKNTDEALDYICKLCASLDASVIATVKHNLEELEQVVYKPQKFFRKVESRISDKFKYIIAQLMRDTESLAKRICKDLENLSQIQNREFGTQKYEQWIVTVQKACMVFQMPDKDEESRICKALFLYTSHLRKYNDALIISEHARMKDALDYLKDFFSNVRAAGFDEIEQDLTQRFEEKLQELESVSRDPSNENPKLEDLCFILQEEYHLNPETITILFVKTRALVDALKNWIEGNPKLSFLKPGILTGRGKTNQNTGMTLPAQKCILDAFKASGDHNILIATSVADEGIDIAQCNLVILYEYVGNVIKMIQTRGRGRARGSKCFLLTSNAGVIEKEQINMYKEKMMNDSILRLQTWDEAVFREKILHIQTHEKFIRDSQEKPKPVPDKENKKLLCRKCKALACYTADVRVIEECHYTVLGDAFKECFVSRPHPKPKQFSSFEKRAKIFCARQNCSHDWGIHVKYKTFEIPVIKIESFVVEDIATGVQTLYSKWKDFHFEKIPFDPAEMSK
The data set can be described thus: SPR; biotinylated RIG-I pre-incubated with p3dsRNA24 (2.4:1, 4 °C overnight; two RIG-I per RNA) immobilised on a streptavidin SADH chip; Riplet constructs as analyte in HBS-EP+, 50 µl/min, dissociation 180 s, OneStep mode, 1:1 model. The following applies: both partners purified. For orientation: Surface plasmon resonance follows binding to a sensor surface in real time, without labels.

The target of data set [2] is T1, biotinylated Avi-tagged RIG-I (Retinoic …). Kind of data set: SPR; biotinylated RIG-I pre-incubated with p3SLR14 (1:1.5, 4 °C overnight) immobilised on a streptavidin SADH chip; Riplet constructs as analyte in HBS-EP+, 50 µl/min, dissociation 180 s, OneStep mode, 1:1 model. The following applies: both partners purified.
Data set [3] shares this target. The data set can be described thus: SPR; biotinylated apo-RIG-I (no RNA) immobilised on a streptavidin SADH chip; Riplet constructs as analyte in HBS-EP+, 50 µl/min, dissociation 180 s, OneStep mode, 1:1 model. As to conditions: both partners purified.
Data set [4] concerns the target T2, biotinylated Avi-tagged RIG-I (human, UniProt O95786 1-925, biotin on the Avi tag (by BirA)).
T2 construct: RIG-I (Retinoic acid inducible gene-I), human, full-length; Immobilised on the SPR chip as apo protein or pre-incubated with p3SLR14 (1:1.5) or p3dsRNA24 (2.4:1; two RIG-I on one RNA); also called Avi-RIG-I; biotinylated RIG-I; source: E. coli Rosetta 2(DE3), purified (Ni-NTA, ULP1, heparin, size exclusion), biotinylated by BirA, size exclusion; not shown: 6xHis, N-terminal, cleaved; SUMO, …
T2 sequence (looked up): T1 sequence (looked up)
Kind of data set: SPR; apo biotinylated RIG-I immobilised on streptavidin SADH chip; Riplet constructs 0.125-10 µM in HBS-EP+, 50 µl/min, dissociation 180 s, OneStep mode, 1:1 model. As to conditions: both partners purified.

Data set [5] addresses T2, biotinylated Avi-tagged RIG-I. The data set can be described thus: SPR; biotinylated RIG-I pre-incubated with p3dsRNA24 (2.4:1, 4 °C overnight; two RIG-I on one RNA) immobilised on streptavidin SADH chip; Riplet constructs 0.125-10 µM in HBS-EP+, 50 µl/min, dissociation 180 s, OneStep mode, 1:1 model. The following applies: both partners purified.
The target is the same in data set [6]. Kind of data set: SPR; biotinylated RIG-I pre-incubated with p3SLR14 (1:1.5, 4 °C overnight) immobilised on streptavidin SADH chip; Riplet constructs 0.125-10 µM in HBS-EP+, 50 µl/min, dissociation 180 s, OneStep mode, 1:1 model. As to conditions: both partners purified.
The next data set deals with T3, RIG-I;Riplet (human;human, UniProt O95786;Q8IUD6 1-925;1-432, |).
T3 sequence 1: T1 sequence (looked up)
T3 sequence 2: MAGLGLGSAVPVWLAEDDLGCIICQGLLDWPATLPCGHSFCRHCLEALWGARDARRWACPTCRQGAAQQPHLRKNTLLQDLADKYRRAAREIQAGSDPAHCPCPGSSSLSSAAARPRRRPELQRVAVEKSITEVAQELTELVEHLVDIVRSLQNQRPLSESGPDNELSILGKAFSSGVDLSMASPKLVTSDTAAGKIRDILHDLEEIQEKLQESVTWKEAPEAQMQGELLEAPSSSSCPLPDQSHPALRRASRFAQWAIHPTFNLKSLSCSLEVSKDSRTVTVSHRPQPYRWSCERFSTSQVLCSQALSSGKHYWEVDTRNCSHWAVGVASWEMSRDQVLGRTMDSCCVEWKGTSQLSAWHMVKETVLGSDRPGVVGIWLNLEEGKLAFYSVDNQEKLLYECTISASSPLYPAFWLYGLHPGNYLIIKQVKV
The data set can be described thus: cryo-EM; end-end complex, 2 RIG-I:1 RNA:1 Riplet dimer, 3.2 A; EMSA: RNA + RIG-I 30 min RT, then Riplet 30 min RT, 6% native PAGE, GelRed; protein storage buffer 25 mM HEPES pH 7.4, 200 mM NaCl, 5% glycerol, 5 mM BME (bindi). As to conditions: protein: recombinant;recombinant, tags: N-terminal 6xHis-SUMO, removed by ULP1;N-terminal 6xHis-SUMO, chain copies: 2;2, blunt. On the technique in general: In EMSA bound probe runs differently from free probe, usually more slowly.

B1: Riplet full length (RING finger protein leading to RIG-I activation) (enzyme, human, UniProt Q8IUD6 1-432, looked up)
chain: T3 sequence 2
notes: Riplet, human, full length (1-432); also called Riplet-FL; Riplet WT; source: E. coli Rosetta 2(DE3), purified (Ni-NTA, SEC); not shown: His6, N-terminal, cleaved; SUMO, N-terminal, cleaved
Take B1: the off-rate constant (koff) in data set [1] came to 0.003 s⁻¹; in data set [2] it was 0.013 s⁻¹; in data set [3], 0.0034 s⁻¹. Further, the on-rate (kon) in data set [1] is 450000 M⁻¹ s⁻¹; in data set [2] it was 19000 M⁻¹ s⁻¹; in data set [3], 4600 M⁻¹ s⁻¹.

B2: Riplet, full-length (Riplet-FL) (enzyme, human, UniProt Q8IUD6 1-432, looked up)
chain: T3 sequence 2
notes: Only the PrySpry domain is resolved in the cryo-EM maps; also called Riplet WT; E3 ligase Riplet; source: E. coli Rosetta 2(DE3), purified (Ni-NTA, ULP1 digestion, size exclusion); not shown: 6xHis, N-terminal, cleaved; SUMO, N-terminal, cleaved
With B2, the dissociation constant (Kd) worked out at 700 nM in data set [4] and 6.6 nM in data set [5].

B3: Riplet-ΔRING (94-432) (domain or fragment, human, UniProt Q8IUD6 94-432, looked up)
chain: AGSDPAHCPCPGSSSLSSAAARPRRRPELQRVAVEKSITEVAQELTELVEHLVDIVRSLQNQRPLSESGPDNELSILGKAFSSGVDLSMASPKLVTSDTAAGKIRDILHDLEEIQEKLQESVTWKEAPEAQMQGELLEAPSSSSCPLPDQSHPALRRASRFAQWAIHPTFNLKSLSCSLEVSKDSRTVTVSHRPQPYRWSCERFSTSQVLCSQALSSGKHYWEVDTRNCSHWAVGVASWEMSRDQVLGRTMDSCCVEWKGTSQLSAWHMVKETVLGSDRPGVVGIWLNLEEGKLAFYSVDNQEKLLYECTISASSPLYPAFWLYGLHPGNYLIIKQVKV
notes: Riplet, human, residues 94-432 (CC and PrySpry domains, RING deleted); source: E. coli Rosetta 2(DE3), purified (Ni-NTA, SEC); not shown: His6, N-terminal, cleaved; SUMO, N-terminal, cleaved
Consider B3, for which the koff in data set [1] was determined as 0.0085 s⁻¹; in data set [2] it was 0.067 s⁻¹; in data set [3] it was 0.073 s⁻¹. In addition, the figures for the kon in data set [1], in data set [2] and in data set [3] were 810000 M⁻¹ s⁻¹, 54000 M⁻¹ s⁻¹ and 110000 M⁻¹ s⁻¹, respectively. In data set [3], this molecule gave a Kd of 700 nM.

B4: Riplet-ΔRING (94-432) (domain or fragment, human, UniProt Q8IUD6 94-432, looked up)
chain: B3 chain
notes: Riplet, human, residues 94-432 (RING domain deleted; CC and PrySpry domains kept); pET-SUMO-Riplet-ΔRING(94-432); the PDB entries are of the full-length parent; source: E. coli Rosetta 2(DE3), purified (Ni-NTA, ULP1 digestion, size exclusion); not shown: 6xHis, N-terminal, cleaved; SUMO, N-terminal, cleaved
Turning to B4, the Kd in data set [6] was 700 to 1200 nM; in data set [5], 10 nM.

B5: p3dsRNA24 (dsRNA)
RNA 1: GGACGUACGUUUCGCGACUGUAGA
RNA 2: UCUACAGUCGCGAAACGUACGUCC
modifications: 5'-triphosphate on both strands
With B5, in the data set with RIG-I;Riplet, the binding result is “binds”.

B6: Riplet-PrySpry (249-432) (domain or fragment, human, UniProt Q8IUD6 249-432, looked up)
chain: RRASRFAQWAIHPTFNLKSLSCSLEVSKDSRTVTVSHRPQPYRWSCERFSTSQVLCSQALSSGKHYWEVDTRNCSHWAVGVASWEMSRDQVLGRTMDSCCVEWKGTSQLSAWHMVKETVLGSDRPGVVGIWLNLEEGKLAFYSVDNQEKLLYECTISASSPLYPAFWLYGLHPGNYLIIKQVKV
notes: Riplet, human, PrySpry domain, residues 249-432; also called Pspry; source: E. coli Rosetta 2(DE3), purified (Ni-NTA, SEC); not shown: His6, N-terminal, cleaved; SUMO, N-terminal, cleaved
In data set [1], B6 registered a koff of 0.19 s⁻¹ and an on-rate constant (kon) of 130000 M⁻¹ s⁻¹. Moreover, in data set [2], the affinity, expressed as Kd, was 3600 nM; the koff came out at 0.18 s⁻¹; the kon is 51000 M⁻¹ s⁻¹. In addition, in data set [3], binding was characterised by a dissociation constant (Kd) of 3100 nM, the koff amounted to 0.18 s⁻¹ and the kon was determined as 60000 M⁻¹ s⁻¹.

B7: Riplet-PrySpry (249-432) (domain or fragment, human, UniProt Q8IUD6 249-432, looked up)
chain: B6 chain
notes: Riplet, human, PrySpry domain, residues 249-432 (RING and CC domains deleted); pET-SUMO-Riplet-PrySpry(249-432); the PDB entries are of the full-length parent; also called PrySpry domain alone; source: E. coli Rosetta 2(DE3), purified (Ni-NTA, ULP1 digestion, size exclusion); not shown: 6xHis, N-terminal, cleaved; SUMO, N-terminal, cleaved
B7 yielded a Kd in data set [5] of 1400 nM.
